The target of this series is UV-DDB (DDB1-DDB2 heterodimer);SMUG1 WT (UniProt Q16531+Q92466+Q53HV7). Briefly: single-molecule DNA tightrope. As to conditions: both Qdot-labeled; 91.1% of co-localized particles stationary and persistent; tetrahydrofuran abasic site every 2 kb; EMSA: 8 nM DNA, 20 mM HEPES pH 7.5, 150 mM NaCl, 2 mM DTT (5 mM for SMUG1), 5% glycerol, 0.5 mg/ml BSA (0.5 mg/l [sic] for SMUG1), +/- 1.5 mM MgCl2, RT 20 min. A general note: Mobility shift assays separate free from complexed probe on a gel.
Sequence of UV-DDB (DDB1-DDB2 heterodimer);SMUG1 WT (Q16531 whole entry, chain 1 of 3): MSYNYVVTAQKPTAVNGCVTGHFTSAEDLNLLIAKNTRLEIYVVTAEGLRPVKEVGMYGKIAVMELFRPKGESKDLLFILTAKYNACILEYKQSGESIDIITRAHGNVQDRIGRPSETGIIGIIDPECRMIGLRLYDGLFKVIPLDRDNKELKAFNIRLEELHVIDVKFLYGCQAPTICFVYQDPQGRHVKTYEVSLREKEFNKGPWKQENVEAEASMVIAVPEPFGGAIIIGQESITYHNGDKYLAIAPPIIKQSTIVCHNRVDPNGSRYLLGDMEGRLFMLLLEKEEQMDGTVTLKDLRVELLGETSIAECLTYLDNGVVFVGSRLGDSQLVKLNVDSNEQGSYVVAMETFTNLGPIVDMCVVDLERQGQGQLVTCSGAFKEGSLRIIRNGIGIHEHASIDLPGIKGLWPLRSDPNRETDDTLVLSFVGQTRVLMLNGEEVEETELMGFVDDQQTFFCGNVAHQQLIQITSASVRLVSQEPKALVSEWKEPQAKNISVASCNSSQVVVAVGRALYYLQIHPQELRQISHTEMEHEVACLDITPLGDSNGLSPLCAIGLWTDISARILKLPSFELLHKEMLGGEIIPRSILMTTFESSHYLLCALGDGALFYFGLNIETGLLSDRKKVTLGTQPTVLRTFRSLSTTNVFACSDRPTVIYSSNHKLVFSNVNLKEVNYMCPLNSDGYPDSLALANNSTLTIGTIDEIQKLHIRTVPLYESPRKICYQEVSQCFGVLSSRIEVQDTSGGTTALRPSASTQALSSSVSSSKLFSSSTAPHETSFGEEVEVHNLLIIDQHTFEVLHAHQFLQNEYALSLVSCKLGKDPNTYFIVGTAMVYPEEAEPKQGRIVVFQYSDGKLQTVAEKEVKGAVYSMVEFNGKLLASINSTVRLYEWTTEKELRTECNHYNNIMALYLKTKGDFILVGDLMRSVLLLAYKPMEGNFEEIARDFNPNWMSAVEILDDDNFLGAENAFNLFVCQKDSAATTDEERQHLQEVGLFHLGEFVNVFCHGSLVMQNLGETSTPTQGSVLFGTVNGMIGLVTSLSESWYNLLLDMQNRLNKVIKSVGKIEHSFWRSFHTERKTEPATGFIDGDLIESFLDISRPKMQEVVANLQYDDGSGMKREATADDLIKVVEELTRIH
Sequence of UV-DDB (DDB1-DDB2 heterodimer);SMUG1 WT (Q92466 whole entry, chain 2 of 3): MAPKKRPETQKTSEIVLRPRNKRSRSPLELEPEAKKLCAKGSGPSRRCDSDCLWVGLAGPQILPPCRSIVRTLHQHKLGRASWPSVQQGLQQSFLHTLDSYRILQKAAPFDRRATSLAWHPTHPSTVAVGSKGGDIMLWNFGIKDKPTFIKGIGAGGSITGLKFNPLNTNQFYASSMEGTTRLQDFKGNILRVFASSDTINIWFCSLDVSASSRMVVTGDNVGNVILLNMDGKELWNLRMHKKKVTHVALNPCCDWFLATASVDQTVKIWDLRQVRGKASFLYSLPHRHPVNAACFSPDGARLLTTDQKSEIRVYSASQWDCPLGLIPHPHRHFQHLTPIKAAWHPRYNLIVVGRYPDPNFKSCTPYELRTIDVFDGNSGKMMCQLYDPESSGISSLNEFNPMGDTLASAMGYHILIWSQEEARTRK
Sequence of UV-DDB (DDB1-DDB2 heterodimer);SMUG1 WT (Q53HV7 whole entry, chain 3 of 3): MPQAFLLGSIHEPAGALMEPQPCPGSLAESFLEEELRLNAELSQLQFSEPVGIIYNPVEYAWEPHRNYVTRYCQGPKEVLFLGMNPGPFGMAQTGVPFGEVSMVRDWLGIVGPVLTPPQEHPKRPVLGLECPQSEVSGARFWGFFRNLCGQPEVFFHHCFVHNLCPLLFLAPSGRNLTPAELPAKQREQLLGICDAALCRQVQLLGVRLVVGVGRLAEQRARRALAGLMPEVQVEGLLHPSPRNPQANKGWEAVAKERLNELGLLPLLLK

This is an account of results in PMC10250209, “UV-DDB stimulates the activity of SMUG1 during base excision repair of 5-hydroxymethyl-2'-deoxyuridine moieties”.

With “DNA tightrope with one THF site every 2 kb”, the binding (% of particles co-localized) amounted to 15.6.
